± gives the uncertainty stated by the source.
Test: self-splicing fitness, log relative to wild type (ln ratio); higher = more splicing; Tetrahymena group I intron in knt gene, E. coli kanamycin selection, DiMSum; sequences stand for … in CUCUCU…GGAGGGAAAAGUUAUCAGGCAUGCACCUGGUAGCUAGUCUUUAAACCAAUAGAUUGCAUCGGUUUAAAAGGCAAGACCGUCAAAUUGCGGGAAAGGGGUCAACAGCCGUUCAGUACCAAGUCUCAGGGGAAACUUUGAGAUGGCCUUGCAAAGGGUAUGGUAAUAAGCUGACGGACAUGGUCCUAACCACGCAGCCAAGUCCUAAGUCAACAGAUCUUCUGUUGAUAUGGAUGCAGUUCACAGACUAAAUGUCGGUCGGGGAAGAUGUAUUCUUCUCAUAAGAUAUAGUCGGACCUCUCCUUAAUGGGAGCUAGCGGAUGAAGUGAUGCAACACUGGAGCCGCUGGGAACUAAUUUGUAUGCGAAAGUAUAUUGAUUAGUUUUGGAGUACUCGUGGUCG
Procedure, shortened: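 Pooled colonies went to amplicon sequencing on an Illumina HiSeq 2500 after six replicate transformations. The plates were LB agar with 100 μg/mL carbenicillin, 50 μM IPTG and 0.2% rhamnose, with or without 25 μg/mL kanamycin, incubated overnight at 37°C or 30°C. The E. coli BL21(DE3) library had all eight P1ex-region intron nucleotides randomised, the intron placed in the knt kanamycin-resistance gene on pET-22b(+). DiMSum fitness is the error-weighted combination of replicate fold changes, kanamycin against none, normalised to wild type.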

Sequence	self-splicing fitness (ln) (30 °C)	self-splicing fitness (ln) (37 °C)
AUAUAGCAAUAUUACGAUGA	-0.834 ± 0.16	-0.885 ± 0.17
AUAUAGCAAUAUUACGCAUU	-3.04 ± 0.18	-1.42 ± 0.15
AUAUAGCAAUAUUACGCCAU	-1.32 ± 0.18	-1.38 ± 0.21
AUAUAGCAAUAUUACGCCGA	-2.85 ± 0.48	-1.13 ± 0.35
AUAUAGCAAUAUUACGGACC	-0.93 ± 0.22	-0.283 ± 0.24
AUAUAGCAAUAUUACGGCAC	-2 ± 0.24	0.951 ± 0.25
AUAUAGCAAUAUUACGGCCA	-1.28 ± 0.22	-0.185 ± 0.26
AUAUAGCAAUAUUACGGCGG	-1.04 ± 0.17	-0.534 ± 0.26
AUAUAGCAAUAUUACGGUAG	-3.13 ± 0.18	-1.74 ± 0.21
AUAUAGCAAUAUUACGUAGC	-4.04 ± 0.39	-2.54 ± 0.33
AUAUAGCAAUAUUACGUCCA	-1.87 ± 0.34	-0.0483 ± 0.29
AUAUAGCAAUAUUACGUCGU	-1.12 ± 0.12	-0.541 ± 0.18
AUAUAGCAAUAUUACGUGAU	-1.4 ± 0.092	-0.895 ± 0.14
AUAUAGCAAUAUUACGUGCG	-0.942 ± 0.094	-0.942 ± 0.13
AUCAAGCAAUAUUACGAACC	-1.05 ± 0.18	-0.734 ± 0.25
AUCAAGCAAUAUUACGACGC	-0.837 ± 0.099	-0.402 ± 0.12
AUCAAGCAAUAUUACGACUA	-0.634 ± 0.076	0.132 ± 0.088
AUCAAGCAAUAUUACGAGUG	-2.19 ± 0.1	-1.28 ± 0.14
AUCAAGCAAUAUUACGCAAG	-1.99 ± 0.15	-0.935 ± 0.15
AUCAAGCAAUAUUACGCCGA	-1.02 ± 0.14	-0.375 ± 0.17
AUCAAGCAAUAUUACGCGAG	-1.3 ± 0.081	-0.224 ± 0.086
AUCAAGCAAUAUUACGCUGG	-2.36 ± 0.096	-0.84 ± 0.12
AUCAAGCAAUAUUACGGGCA	-1.42 ± 0.098	-0.95 ± 0.098
AUCAAGCAAUAUUACGGUAC	-3.8 ± 0.23	-0.246 ± 0.12
AUCAAGCAAUAUUACGGUCC	-1.55 ± 0.13	-1.75 ± 0.17
AUCAAGCAAUAUUACGGUGU	-1.7 ± 0.076	-1.11 ± 0.088

Sequence	self-splicing fitness (ln) (30 °C)	self-splicing fitness (ln) (37 °C)
AUCAAGCAAUAUUACGUAAA	-2.59 ± 0.13	-1.11 ± 0.12
AUCAAGCAAUAUUACGUCCA	-1.23 ± 0.09	-0.319 ± 0.11
AUCAAGCAAUAUUACGUCGG	-3.01 ± 0.13	-1.29 ± 0.12
AUCAAGCAAUAUUACGUGAU	-3.81 ± 0.2	-2.23 ± 0.17
AUCAAGCAAUAUUACGUGGG	-3.29 ± 0.14	-2.04 ± 0.11
AUCAAGCAAUAUUACGUGUG	-1.57 ± 0.069	-1.32 ± 0.071
AUCAAGCAAUAUUACGUUAA	-3.14 ± 0.11	-1.87 ± 0.093
AUCAAGCAAUAUUACGUUAC	-5.49 ± 0.45	-2.82 ± 0.27
AUCAAGCAAUAUUACGUUCA	-1.91 ± 0.11	-0.446 ± 0.13
AUCAAGCAAUAUUACGUUUC	–	-1.52 ± 0.34
AUCCAGCAAUAUUACGAAAA	-1.79 ± 0.12	-1.02 ± 0.12
AUCCAGCAAUAUUACGAGUU	-1.33 ± 0.063	-0.782 ± 0.077
AUCCAGCAAUAUUACGAUGU	-0.743 ± 0.066	0.613 ± 0.093
AUCCAGCAAUAUUACGCAAC	-2.21 ± 0.13	-0.741 ± 0.12
AUCCAGCAAUAUUACGCACG	-1.68 ± 0.12	-0.334 ± 0.13
AUCCAGCAAUAUUACGCCGU	-0.864 ± 0.096	-0.133 ± 0.12
AUCCAGCAAUAUUACGCCUU	-0.818 ± 0.067	-0.214 ± 0.082
AUCCAGCAAUAUUACGCGAU	-1.86 ± 0.15	-2.42 ± 0.25
AUCCAGCAAUAUUACGCUAU	-1.51 ± 0.09	-1.26 ± 0.1
AUCCAGCAAUAUUACGGCCC	-0.946 ± 0.2	0.127 ± 0.21
AUCCAGCAAUAUUACGGCUG	-3.69 ± 0.39	-2.43 ± 0.27
AUCCAGCAAUAUUACGGGUC	-3.06 ± 0.12	-1.62 ± 0.13
AUCCAGCAAUAUUACGGUGA	-1.55 ± 0.096	-1.17 ± 0.11
AUCCAGCAAUAUUACGGUUG	-2.95 ± 0.1	-1.03 ± 0.087
AUCCAGCAAUAUUACGUAAU	-0.922 ± 0.072	-0.492 ± 0.079
AUCCAGCAAUAUUACGUAUC	-3.8 ± 0.27	-2.26 ± 0.2

Sequence	self-splicing fitness (ln) (30 °C)	self-splicing fitness (ln) (37 °C)
AUCCAGCAAUAUUACGUCAC	-2.35 ± 0.19	-2.44 ± 0.22
AUCCAGCAAUAUUACGUCCU	-1.47 ± 0.11	-0.253 ± 0.14
AUCCAGCAAUAUUACGUCUC	-1.84 ± 0.12	-0.869 ± 0.11
AUCCAGCAAUAUUACGUGUA	-1.71 ± 0.06	-0.487 ± 0.059
AUCCAGCAAUAUUACGUUCG	-2.47 ± 0.1	-0.92 ± 0.12
AUCGAGCAAUAUUACGACCG	–	-1.63 ± 0.36
AUCGAGCAAUAUUACGAGCA	-1.2 ± 0.12	-0.963 ± 0.14
AUCGAGCAAUAUUACGAUAA	-2.7 ± 0.26	-1.74 ± 0.21
AUCGAGCAAUAUUACGAUAU	-2.14 ± 0.17	-0.583 ± 0.14
AUCGAGCAAUAUUACGAUUA	-2.47 ± 0.23	0.0165 ± 0.12
AUCGAGCAAUAUUACGCAAU	-2.08 ± 0.21	-2.75 ± 0.4
AUCGAGCAAUAUUACGCAUC	-2.77 ± 0.48	–
AUCGAGCAAUAUUACGCAUU	-1.6 ± 0.24	-3.11 ± 0.3
AUCGAGCAAUAUUACGCGCA	-1.59 ± 0.17	-0.0318 ± 0.17
AUCGAGCAAUAUUACGCGUA	-1.93 ± 0.17	-1.01 ± 0.14
AUCGAGCAAUAUUACGCUCA	-1.09 ± 0.26	-0.721 ± 0.4
AUCGAGCAAUAUUACGCUUU	-2.98 ± 0.15	-2.29 ± 0.18
AUCGAGCAAUAUUACGGAUA	-3.67 ± 0.33	-1.92 ± 0.25
AUCGAGCAAUAUUACGGCAG	–	-2.63 ± 0.46
AUCGAGCAAUAUUACGGCAU	-0.455 ± 0.098	-0.101 ± 0.1
AUCGAGCAAUAUUACGGCUC	-1.39 ± 0.36	-1.56 ± 0.49
AUCGAGCAAUAUUACGGGCG	-2.97 ± 0.16	-2.37 ± 0.19
AUCGAGCAAUAUUACGGGCU	-4.05 ± 0.23	-2.94 ± 0.26
AUCGAGCAAUAUUACGGGGU	-3.4 ± 0.21	-2.52 ± 0.19
